Key:
[1] = target: RAGE (receptor for advanced glycation end products), endogenous in MDA-MB-231 cells (human (endogenous in MDA-MB-231)) (UniProt Q15109)
[2] = target: RAGE (receptor for advanced glycation end products), endogenous in MDA-MB-231 cells (human (endogenous in MDA-MB-231)) (UniProt Q15109); remark: listed apart in the source

Sequence of UniProt Q15109 (Q15109 23-404): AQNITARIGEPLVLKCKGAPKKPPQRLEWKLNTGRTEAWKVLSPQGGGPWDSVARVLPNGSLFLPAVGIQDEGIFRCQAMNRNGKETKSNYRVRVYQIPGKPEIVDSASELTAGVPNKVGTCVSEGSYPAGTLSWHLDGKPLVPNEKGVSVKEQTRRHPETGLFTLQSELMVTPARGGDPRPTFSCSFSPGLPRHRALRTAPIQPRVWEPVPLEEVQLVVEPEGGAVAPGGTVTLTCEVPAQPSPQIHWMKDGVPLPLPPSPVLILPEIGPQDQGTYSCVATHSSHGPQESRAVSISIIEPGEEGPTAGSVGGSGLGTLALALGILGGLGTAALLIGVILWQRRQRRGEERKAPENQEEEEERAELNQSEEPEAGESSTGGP

cytoplasmic histone-associated DNA fragmentation in ASA-pretreated MDA-MB-231 cells after removal of Ac-APE1/Ref-1 with an anti-APE1/Ref-1 antibody (2 ug) (% of the control level) [1]	phosphorylation of p38 MAPK at Tyr182 in MDA-MB-231 cells treated with 5 mM ASA (3 h to 24 h) [2] [%]	Substance	cell viability of ASA-pretreated MDA-MB-231 cells after removal of Ac-APE1/Ref-1 with an anti-APE1/Ref-1 antibody (2 ug) [1] [%]
33	–	recombinant human acetylated APE1/Ref-1 (apurinic apyrimidinic endonuclease 1/redox factor-1) (from UniProt P27695 1-318) (natural protein)	80
–	62	secreted acetylated APE1/Ref-1 from ASA/TSA-treated MDA-MB-231 cells (from UniProt P27695 1-318) (natural protein)	–
